The nature of the data set: soluble on expression in E. coli; label from the status in PepcDB or PDB records.
“MSSDANSDDPFSKPIVRKRFQATLAQQGIEDDQLPSVRSSDSPDVPDTPDVPVNQLSSPPLSLPETLSEGNAETNLSDDSEPEMLSQSSTSSLNRRMEDSAIDPSRGTRKSQSRGFDYDPAGERTTAPVQKKKKDEIDMGGAKFFPKQEKKHVYTHKWTTEEDDEDEKTISSSSNRYSSRPNQPAVSARPRQPVYATTSTYSKPLASGYGSRVRHIKEANELRESGEYDDFKQDLVYILSSLQSSDASMKVKCLSAISLAKKCVSPDFRQFIKSENMTKSIVKALMDSPEDDLFALAASTVLYLLTRDFNSIKIDFPSLRLVSQLLRIEKFEQRPEDKDKVVNMVWEVFNSYIEKQEVGGQKVSFDMRKESLTPSSLIIEALVFICSRSVNDDNLKSELLNLGILQFVVAKIETNVNLIADNADDTYSILILNRCFRILESSSVFHKKNQAFLISHRSNILISSLAKFLQVILDRVHQLAEEEVKKYISCLALMCRLLINISHDNELCCSKLGQIEGFLPNAITTFTYLAPKFGKENSYDINVMMTSLLTNLVERCNANRKVLIAQTVKMVIPGHDVEEVPALEAITRLFVYHESQAQIVDADLDRELAFDEGGCGDEEEEEEGGDESSDEDGVRKDGRLDRNKMDRMDQVDVVHALQQVMNKASAHMEGSVIASYHALLVGFVLQQNEDHLDEVRKHLPGKNFQNMISQLKRLYDFTKATMAKRVESNSGFRAIERVIEYLERLE”: the “soluble on expression in E. coli” value is given as “not soluble”.

As to “MSKLLLVGEPLIRVSPNQFQPLTNACEAQLFFGGSEVNIARTLGGFGLEARLFTALPDNPVGHAFHQFLKQSGVDMSLTAWQGHRVGLYYLENGFGCRASQVYYDRCGSSFSALDKDSLDLAAIFEGISHFHFSGISLALGKKTQDLIEVLVREAKKRDICISFDLNFRSSMIAVADAKRLFSHFAQYADIIFGMEPLLLDSDDFDMFDRKKADTTTIRERLAGLYQRYQLQAIYHTERSNDAQGSNHFKAYAYDRQFYESCEVTTPVLQRVGSGDAFVAGLLYQLLEGNEKQRNLDFAVATASLKCTVAEDQLYHSVQQVEAVLANQRDIQR”, the “soluble on expression in E. coli” value is on record as “not soluble”.

On to “MTSIEWDEKTFTKFAYLSDPRTRKNLVAYVLTKANLESNKYENTIVIENLEDGSRKFIEDASMPRISPDGKKIAFMRFNEEKKTAQIWVADLKTLSAKKVLEAKNIRSIEWNQDSRRLLAVGFKRREDEDFIFEDDVPAWFDNMGFFDGEKTTFWVIDTEGEEVIEQFEKPRFSSGIWHGDSIVVSVPHRDVIPRYFKYWDIYLWKDGEEEKLFEKVSFYAIDSDGERILLYGKPEKKYVSEHDKIYIYDGEVKGILDDIDREVAQAKIRNGKVYFTLFEEGSVNLYLWDGEVREIAKGKHWIMGFDADERLIYLKETATRPAELYLWDGEERQLTDYNGLIFKKLKTFEPRHFRFKSIDLELDGWYIKPEIKEGEKAPVIVFVHGGPKGMYGYYFKYEMQLMASKGYYIVYVNPRGSNGYSEDFALRVLERTGLEDFQDILNGIEEFLRLEPQADRERIGITGISYGGYMTNWALTQSDLFKAGISENGISYWLTSYAFSDIGLWFDKEVIGDNPLENENYRKLSPLFYAKNVKAPLLLIHSLEDYRCPLDQSLMFYHVLKDLGKEVYIAIFKKGAHGHSIRGSPRHRMKRYKLFMEFFERKLKKYEEGFDVEKILKEEKK”, for which the “soluble on expression in E. coli” value is on record as “soluble”.

As to “MAKRKGKGTRSESNRNLEELRRKAVEIVKRLEKVYLNPRLELEYENAFQLLVMAILAAQESDKVVNKVSKEFFKKYKTPQDIARANLEELEEDLKHINFYRRKAKLIKECCEKLIELYKGEVPKSVGELVKLPGVGRKTANMVIGGAYNLPAIIVDRHVHRVVERISLSKQKNPDKMEMELSEIVPQELWTKFSLLLLNHGKTICKARNPECEKCPILDLCEYGQKNLKGRK”, the “soluble on expression in E. coli” value is “soluble”.

As to “MFDPKMLSVEFRNGITDEKPIEGRKYTLTHNDDTGELFLTVALAYAYDKINSSARDEVFGVWKRGNNRFILKIYLYVDGNQGREEAIKRDRIFRKELPLALAAIAYGDRKFLDDNDDLLNSNIIVRFISAYEELNKIENYGTLKDYLEHHHHHH”, the “soluble on expression in E. coli” value is reported as “soluble”.

“MSKPLIFAHRGVKGTHPENTMIAFQEAERIGAHGIELDVHLSKDGELVVIHDETVDRTTNGVGLVSEKTVEELQLLDAGSYKDPSFHEAKIPTLREVFIWLSTTNLQLNIELKTDVIHYPNIEEKAVALVREYHLSNQIVFSSFNHDSVSLLAEIAPEIPRAILYDTPLTDPISEAKHREASGLHPNFQLLTKEFVQLAQEQGYVFRPYTINEYKDLQTMIDYGVDVIITDWPARAFELLS”: the “soluble on expression in E. coli” value is on record as “not soluble”.

For the sequence “MNSSTANKQKGIQLIPFTVDKVVEQVNEIPPGVQLIHAPQVWEKSAKGKDIVVAVLDTGCDMNHIDLKDRIIGGRNFTKDYEGDPNIYLDNNGHGTHVAGTIAATENGVGVLGVAPLAKMLVLKVLAGDGSGSYEQIIEAIHYAVNWRGPNKERVRVISMSLGGPQDVPELHEAIQNAVKQDVLVVCAAGNNGDCNDNTEELDFPGAYSEVIEVGAVNLERKIACFSNSNQEIDLVAPGDEILSTYPEGKYAVLSGTSMATPHVAGALALLIKQCEREYGRKLSEPEIYAQLIKRTVPLGYERTSEGNGLIDLLKE”, the “soluble on expression in E. coli” value is recorded as “not soluble”.

With “MNTELQPKLEKSAVNFQAKPRKQKIRKDPNAPFIREKLELPDGHNKLLLHSCCAPCSGEVMEAILASGIEFTIYFYNPNIHPLKEYLIRKEENIRFAKKFGIPFIDADYDRQNWFDRAKGMEWEPERGIRCTMCFDMRFEKAAEYAHKHGFPVFTSCLGISRWKDMNQINGCGHRAAEKYDDVIYWDYNWRKEGGSQRMIEISKRERFYQQEYCGCVYSLRDSNKWREETGRQKIEIGKLYYSAD”, the “soluble on expression in E. coli” value is reported as “not soluble”.

As for “MSADLKQSRLADWRQRALAFEREVGKAVIGLERPIRHILIAVFARGHVMLEGDVGVGKTTLLRAVARCLGGAYERVEGTIDLMPNDLVYHTYINELGKPQVEPGPVLKHGEELSVFFFNEVNRARPQVHSLLLRIMAEHAVSAFNREHFFPYLQVFADRNRVEKEETFEIPSAARDRFMMELHVETPADPALRRALMFDPKFHDVDRLLDTLTPGILPYREIPQIAPVIQQSVTASETLQQYALDLWEATRRPADYGVKLEGIDMDRLILAGASARGVSMMMRAARVAAWLDGRDYLVPEDIHDVFRETIGHRVFFNPVYELRRTALIDELLHAIRQKVAAPLEHHHHHH”, the “soluble on expression in E. coli” value was “soluble”.

As for “TVSRENRAEDSRVAAKGVAFGGGETVRIAAEPSVWSNADAVFLDPFFTSANLYDTLSADEGRGRCRRLAEQAASAHGAGKPVLVRVRNVRHVEAALNAGADILYLGGGLMSDLAVLNEAGSLNIPLVLCKDKHHSAEDWLNAAEYVVSRGNRHLILGESGVLGHTKGHPYRLDVESIVKVRQISHLPVIANITGLWSRDMPQEILYGLAKAAGACGIV”, the “soluble on expression in E. coli” value was “not soluble”.

On to “MKKLFFIMAMSVCAFTAQAQTTSGIRVGLNMTSATGKYNDLMADQDYNNKSYMGYSIHYFIDVPVIGNFSIQPAVGLSMKGITYEYDKFTTKKSHRLDLDSYKKYDVTESRGTSVTQKHNLGYLDVPILFAYALPLSESFRVQLGVGPYFSYGLFGKFKYESDKYLTVSPDKYGENKHTITKDDYPSFGKNDDADDPKGNINRFDWGIAVQGSIYWKRLFLNVAYQKGLKSANITDEKNEGKDKLALSNLSLGLGFIF”, for which the “soluble on expression in E. coli” value is given as “not soluble”.

For the sequence “MGSDKIHHHHHHVSRSVSIYVCQSCGAQTRQFFGRCNNCGEWNSIIEEKINQKSDKSIYTKINSPKEKSPYRSELISQTKNQLIERISSGYKELDRVLGGGLVPGSLVLIGGDPGIGKSTLILQSATEMAHHKSVLYVAAEESAQQVKLRWNRIEDAESNLHLLAETDLEMVIKELDHLKPEVAVIDSIQALHDQSLSSSPGSVAQVRECSAALQQIAKRQNISLLIIGHVTKDGMLAGPKVLEHLVDAVLTFEGDRFASHRLLRGVKNRFGATSELGVFEMQADGLSEVPNPSELFLSKTSAPGISTIVTCEGTRPLAIDIQALLNPTSYASPRRTTTGIEINRLHQILAVLEKNMNLSLSRYDCYLAVAGGLEVEEPGADLGIAAAIVSSLKDIELEEGVVFIGEIGLAGQLRLVRQMQQRINEVIRLGYKTLIIPDGIDTSEFETNQKLKILKASNINQALIYALDNN”, the “soluble on expression in E. coli” value is given as “not soluble”.

For the sequence “FIKLITSAKKRVWIQTPYLVPDDSVLAALKVAAASGVDVKIMIPDKPDHPFIYRATQYYGRLLMKENIEILIYNGGFLHAKTMIMDDEVCTVGSANQDIRSYKLNFEANAVLYDKKIIDQLEAIFLEDRKKCTTMTPEVVRDM”, the “soluble on expression in E. coli” value is recorded as “not soluble”.

On to “MKKTFEKVYHLKLSIKGITPQIWRRIQVPENYTFLDLHKAIQAVMDWEDYHLHEFEMVNPKTGMLDKIGAEGDDFDAFGGPLVSEKKAKLSDYFTLENKEALYTYDFGDNWQVKVRLEKILPRKEGVEYPICTAGKRAAVPEDSGGVWGYEEMLEVLKDSEHEEYEDTVLWLGDDFDPEYFDPKDVSF”, for which the “soluble on expression in E. coli” value is “soluble”.

As to “MGEIADSLAGLTISVVSPDNQLAATVRRRREVTVHFRPGSYERYDARTLETQLSQLFTLVMSGYRQGYMSVMEAHDMTVMADASDVDTEAGRIVRRRRDETVALGESAQGMVRAKTRGLSEWRFKIADGALSRLSEEQFTAEIHGAFMNVMADWSRRVRRIHWEVFSPDRVPAAGR”, the “soluble on expression in E. coli” value was “not soluble”.

Take “MVQEQMKLTGTLEGHTGWVTQIATYTRNDKTTVLSSSRDKTILVWDVDSVAPVDEGPIGRPVRSLTGHNHFVSDVVISSDGQFALSGSWDKTLRLWDLNQGVSTRQFISHTKDVLSVAFSADNRQIVSGSRDKSIKLWNTLAQCKYTITDDCHTDWVSTVRFSPSNRDPVIVSAGWDKVVKVWNLGNCRLKTNHIGHTGYVNTVTVSPDGSLCASGGKDGQAMLWDLNEGKHLYTLPGNDVINAMSFSPNRYWLCAAVGSSIKIWDLEDKKEIEELKPEIASSGSSRGSSPQCISLAWSQDGQTLFAGYTDNIIRVYQVSIRASN”: the “soluble on expression in E. coli” value is listed as “not soluble”.

For the sequence “MSLTVTIKDVAKKANVAPSTVSRVIADNPSISEKTKRRVRKVMSELGYHPNLNARSLANQTTKTIGLVMPSSANKAFQNPFFPEVIRGISSFAHVEGYALYMSTGETEEEIFNGVIKMVQGRQIGGIILLYSRENDRIIQYLNEKNFPFVLIGKPYDKKDKITYVDNDNYTAAREVAEYFISLGHKRIAFIGGGSDLLVTKDRLAGMSDALKLADIQLPSEYIFHLDFSRESGQQAVEELMGLKEPPTAIMATDDLIGLGVLSALTAKGISVPKDVSLVSFNNVLLSEIASPPLTTVDVNIYQLGYEAAKALVDKVEHSESSSKCIVIPHKLLKRQTCEGHHHHHH”, the “soluble on expression in E. coli” value is reported as “soluble”.

As for “SRLITHNMLSCNIKGVTSGFPLRIEAGNVIEKEVDFNPDFIRHMFAKIEWKALVEGARSMGYAELPEESPDAAVLKSDEPFLKKLHHALLELHLEEGALVCPETGRKFPVNKGIPNMLLHEDEV”, the “soluble on expression in E. coli” value was “soluble”.

Consider “MGSDKIHHHHHHMQFTINHRTHYLYTDVVNYTIQKLRLTPQDGFGQRVKRWEIRVNGHLQRHDDAYGNAEHLLVLDTPHEEINILATGEVETGLDTPPAHDLLPREIYLRTTALTATDATLRNFAEQFRYDRFTGQILDEMMHAIVDKVPYYRGVTNVNTPAAEAFRSGHGVCQDHAHIFIACCRYLGIPARYVSGYLFTDDGSLMESHAWADACLPSGWISFDVSNRCRTNGVHVRLATGLDYSDACPVSGMRVGGGLETMTVGVHVSQLQSQQ”, for which the “soluble on expression in E. coli” value is recorded as “not soluble”.

Turning to “MATIIPTAWQPFKSETPLTTFPFRFPAEWEPQSAILIAWPHANTDWSAHLADVEETYIALVAAITRFQMVIICVLDDDLQTYTEARLRSASVAMQQVRFTVASYNDTWLRDSGPITLIGTNRDFRLLDFRFTGWGGKFEAKADDQLVSVLHANGLFKNTQMHSINFALEGGAIETDGAGTLLTTWRCLHERHPQRTRKTLDANLTAWLAQNRVLWLEHGYLEGDDTDAHIDTLARFASTDSIVYQSCDNTTDSHYAELQAMANELTALRTTEGRAYRLFPLPWTKPILDQDRRLPASYANFLIIEGAVLMPTYDDPADTIAQSVLAEAFP”, the “soluble on expression in E. coli” value is recorded as “not soluble”.

For the origin of these results see the DeepSol protein solubility set.
